Article PMC9482650, “Quantitative fragmentomics allow affinity mapping of interactomes” (Nature Communications, 2022)
Blank lines part the entries; values can stand above or below the binder they belong to.

Legend:
Assay in all cases: holdup assay
Parameters in all cases: key: below the threshold = too weak to quantify, mostly under pKd 3.1 to 4
[1] = molecular target: CASK, O14936
[2] = molecular target: Inadl_3, Q8NI35
[3] = molecular target: T1, SNTG1, Q9NSN8
T1 sequence (Q9NSN8 52-150, limits assumed, looked up): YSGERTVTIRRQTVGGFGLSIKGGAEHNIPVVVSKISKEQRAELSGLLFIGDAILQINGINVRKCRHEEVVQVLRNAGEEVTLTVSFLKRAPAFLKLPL

[4] = molecular target: T2, APBA1_1, Q02410
T2 sequence (Q02410 651-752, limits assumed, looked up): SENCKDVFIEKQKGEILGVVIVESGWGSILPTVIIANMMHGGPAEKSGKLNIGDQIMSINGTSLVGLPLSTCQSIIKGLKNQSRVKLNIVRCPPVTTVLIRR

[5] = molecular target: GIPC2, Q8TF65
Chain of GIPC2, Q8TF65 (Q8TF65 112-203): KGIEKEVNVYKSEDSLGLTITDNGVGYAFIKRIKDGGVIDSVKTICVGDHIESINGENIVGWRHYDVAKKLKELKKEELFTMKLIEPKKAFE

[6] = molecular target: LNX1_2, Q8TBB1
Chain of LNX1_2, Q8TBB1 (Q8TBB1 371-470): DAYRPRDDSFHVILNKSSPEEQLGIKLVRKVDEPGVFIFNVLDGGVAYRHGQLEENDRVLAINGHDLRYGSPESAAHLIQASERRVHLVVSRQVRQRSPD

[7] = molecular target: T3, NHERF3_3, Q5T2W1
T3 sequence (Q5T2W1 238-333, limits assumed, looked up): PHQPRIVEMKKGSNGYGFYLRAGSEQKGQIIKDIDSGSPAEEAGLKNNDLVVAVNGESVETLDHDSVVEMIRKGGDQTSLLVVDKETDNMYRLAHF

[8] = molecular target: LNX1_1, Q8TBB1
Chain of LNX1_1, Q8TBB1 (Q8TBB1 261-371): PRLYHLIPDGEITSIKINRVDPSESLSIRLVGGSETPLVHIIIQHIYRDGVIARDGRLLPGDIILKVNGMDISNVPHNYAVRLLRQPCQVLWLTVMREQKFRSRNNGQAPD

[9] = molecular target: T4, GRIP1_2, Q9Y3R0
T4 sequence (Q9Y3R0 145-248, limits assumed, looked up): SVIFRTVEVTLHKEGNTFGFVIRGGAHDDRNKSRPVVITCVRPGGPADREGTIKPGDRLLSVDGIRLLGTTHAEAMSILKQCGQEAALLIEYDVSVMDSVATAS

[10] = molecular target: T5, DLG3_1, Q92796
T5 sequence (Q92796 125-227, limits assumed, looked up): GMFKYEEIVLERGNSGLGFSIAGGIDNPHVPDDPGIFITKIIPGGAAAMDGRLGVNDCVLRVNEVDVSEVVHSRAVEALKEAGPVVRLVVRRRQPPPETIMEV

[11] = molecular target: MAGI1_1, Q96QZ7
Chain of MAGI1_1, Q96QZ7 (Q96QZ7 1-106): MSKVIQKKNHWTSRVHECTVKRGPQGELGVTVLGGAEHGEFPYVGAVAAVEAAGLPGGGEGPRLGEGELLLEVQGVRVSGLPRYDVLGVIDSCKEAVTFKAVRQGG

[12] = molecular target: DLG4_2, P78352
Chain of DLG4_2, P78352 (P78352 155-259): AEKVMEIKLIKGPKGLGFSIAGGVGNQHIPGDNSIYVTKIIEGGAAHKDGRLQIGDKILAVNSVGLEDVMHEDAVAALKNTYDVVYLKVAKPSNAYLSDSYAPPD

[13] = molecular target: NHERF4_4, Q86UT5
Chain of NHERF4_4, Q86UT5 (Q86UT5 464-550): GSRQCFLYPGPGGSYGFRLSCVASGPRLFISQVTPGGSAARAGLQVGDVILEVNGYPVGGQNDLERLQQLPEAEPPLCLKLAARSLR

[14] = molecular target: MAGI2_4, Q86UL8
Chain of MAGI2_4, Q86UL8 (Q86UL8 772-865): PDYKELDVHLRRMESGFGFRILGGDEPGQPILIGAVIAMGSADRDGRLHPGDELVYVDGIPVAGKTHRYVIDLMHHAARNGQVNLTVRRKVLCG

[15] = molecular target: MAGI2_6, Q86UL8
Chain of MAGI2_6, Q86UL8 (Q86UL8 1141-1229): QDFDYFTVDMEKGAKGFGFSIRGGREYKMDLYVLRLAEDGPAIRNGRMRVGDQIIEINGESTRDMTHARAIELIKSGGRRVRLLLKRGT

[16] = molecular target: T6, TX1BP3, O14907
T6 sequence (O14907 10-122, limits assumed, looked up): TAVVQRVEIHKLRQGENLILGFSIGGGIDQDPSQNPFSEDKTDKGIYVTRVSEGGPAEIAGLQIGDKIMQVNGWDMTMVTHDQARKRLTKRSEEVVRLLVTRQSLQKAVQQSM

[17] = molecular target: T7, MPP2, Q14168
T7 sequence (Q14168 180-250, limits assumed, looked up): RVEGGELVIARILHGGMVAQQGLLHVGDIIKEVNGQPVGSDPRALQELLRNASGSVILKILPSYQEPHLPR

[18] = molecular target: FRMPD2_3, Q68DX3
Chain of FRMPD2_3, Q68DX3 (Q68DX3 1073-1166): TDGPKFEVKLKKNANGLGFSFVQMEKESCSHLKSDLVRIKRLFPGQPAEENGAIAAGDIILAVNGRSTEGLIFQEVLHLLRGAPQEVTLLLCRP

[19] = molecular target: Inadl_9, Q8NI35
Chain of Inadl_9, Q8NI35 (Q8NI35 1530-1615): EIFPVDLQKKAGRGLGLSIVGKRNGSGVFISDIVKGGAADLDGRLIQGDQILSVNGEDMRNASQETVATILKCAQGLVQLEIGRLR

[20] = molecular target: TJP1_3, Q07157
Chain of TJP1_3, Q07157 (Q07157 416-512): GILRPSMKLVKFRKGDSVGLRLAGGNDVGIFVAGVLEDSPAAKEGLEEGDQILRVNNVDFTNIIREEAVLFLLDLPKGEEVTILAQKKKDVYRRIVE

[21] = molecular target: T8, DLG3_3, Q92796
T8 sequence (Q92796 374-475, limits assumed, looked up): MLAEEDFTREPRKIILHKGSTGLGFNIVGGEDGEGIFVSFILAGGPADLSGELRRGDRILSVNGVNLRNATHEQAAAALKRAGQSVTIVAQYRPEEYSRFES

[22] = molecular target: T9, DLG3_2, Q92796
T9 sequence (Q92796 221-321, limits assumed, looked up): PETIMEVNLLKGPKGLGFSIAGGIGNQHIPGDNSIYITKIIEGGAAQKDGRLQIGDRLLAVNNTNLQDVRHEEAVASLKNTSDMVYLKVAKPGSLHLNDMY

[23] = molecular target: T10, LIN7B, Q9HAP6
T10 sequence (Q9HAP6 88-185, limits assumed, looked up): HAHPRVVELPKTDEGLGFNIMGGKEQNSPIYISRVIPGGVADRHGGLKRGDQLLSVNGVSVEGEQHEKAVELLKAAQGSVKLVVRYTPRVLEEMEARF

[24] = molecular target: Inadl_8, Q8NI35
Chain of Inadl_8, Q8NI35 (Q8NI35 1425-1530): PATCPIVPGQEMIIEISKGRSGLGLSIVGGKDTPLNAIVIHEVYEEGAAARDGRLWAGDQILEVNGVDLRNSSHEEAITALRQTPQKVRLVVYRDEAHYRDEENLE

[25] = molecular target: T11, TJP3_3, O95049
T11 sequence (O95049 375-456, limits assumed, looked up): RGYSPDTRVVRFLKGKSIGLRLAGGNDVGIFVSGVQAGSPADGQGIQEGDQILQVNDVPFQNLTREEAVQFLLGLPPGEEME

[26] = molecular target: T12, PTPN13_1, Q12923
T12 sequence (Q12923 1088-1188, limits assumed, looked up): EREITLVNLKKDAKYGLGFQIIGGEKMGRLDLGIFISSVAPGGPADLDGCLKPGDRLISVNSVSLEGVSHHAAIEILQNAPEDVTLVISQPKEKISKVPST

[27] = plain residues with an end cap or a label only (N-terminal biotin on a linker: ttds)
[28] = plain residues with an end cap or a label only (N-terminal biotin on a linker: ahx)

Chain of CASK, O14936 (O14936 487-570): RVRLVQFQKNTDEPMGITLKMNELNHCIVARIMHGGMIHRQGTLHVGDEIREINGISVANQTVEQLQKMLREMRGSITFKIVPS
Chain of Inadl_3, Q8NI35 (Q8NI35 359-469): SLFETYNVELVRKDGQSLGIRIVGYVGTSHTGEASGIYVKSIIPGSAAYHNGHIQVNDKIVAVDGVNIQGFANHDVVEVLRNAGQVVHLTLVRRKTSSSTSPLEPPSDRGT

pKd [1, 27]: below the threshold | pKd [2, 27]: below the threshold | pKd [3, 27]: 3.88 | pKd [4, 27]: below the threshold | pKd [5, 27]: below the threshold | pKd [6, 27]: 3.52 | pKd [7, 27]: 3.61 | pKd [8, 27]: 3.76 | pKd [9, 27]: below the threshold | pKd [10, 27]: below the threshold | pKd [11, 27]: 3.64 | pKd [12, 27]: below the threshold | pKd [13, 27]: 3.49 | pKd [14, 27]: 3.78 | pKd [15, 27]: below the threshold | pKd [16, 27]: below the threshold | pKd [17, 27]: below the threshold | pKd [18, 27]: below the threshold | pKd [19, 27]: below the threshold | pKd [20, 27]: below the threshold | pKd [21, 27]: below the threshold | pKd [22, 27]: below the threshold | pKd [23, 27]: below the threshold | pKd [24, 27]: below the threshold | pKd [25, 27]: 3.59 | pKd [26, 27]: below the threshold
Binder: RRVRKLPSTTL [RPS6KA1, Q15418]

pKd [1, 28]: below the threshold | pKd [2, 28]: below the threshold | pKd [3, 28]: below the threshold | pKd [4, 28]: below the threshold | pKd [5, 28]: below the threshold | pKd [6, 28]: 3.58 | pKd [7, 28]: below the threshold | pKd [8, 28]: below the threshold | pKd [9, 28]: below the threshold | pKd [10, 28]: below the threshold | pKd [11, 28]: below the threshold | pKd [12, 28]: below the threshold | pKd [13, 28]: below the threshold | pKd [14, 28]: below the threshold | pKd [15, 28]: below the threshold | pKd [16, 28]: below the threshold | pKd [17, 28]: 3.69 | pKd [18, 28]: 4.17 | pKd [19, 28]: 3.97 | pKd [20, 28]: below the threshold | pKd [21, 28]: below the threshold | pKd [22, 28]: below the threshold | pKd [23, 28]: below the threshold | pKd [24, 28]: below the threshold | pKd [25, 28]: below the threshold | pKd [26, 28]: below the threshold
Binder: KKNKDKEYYV [NRXN1, Q9ULB1]

pKd [1, 27]: below the threshold | pKd [2, 27]: 3.75 | pKd [3, 27]: 3.86 | pKd [4, 27]: below the threshold | pKd [5, 27]: below the threshold | pKd [6, 27]: below the threshold | pKd [7, 27]: 3.54 | pKd [8, 27]: 3.52 | pKd [9, 27]: 3.61 | pKd [10, 27]: 3.51 | pKd [11, 27]: below the threshold | pKd [12, 27]: 4.45 | pKd [13, 27]: below the threshold | pKd [14, 27]: 3.49 | pKd [15, 27]: below the threshold | pKd [16, 27]: below the threshold | pKd [17, 27]: below the threshold | pKd [18, 27]: 3.57 | pKd [19, 27]: below the threshold | pKd [20, 27]: below the threshold | pKd [21, 27]: below the threshold | pKd [22, 27]: 4.53 | pKd [23, 27]: below the threshold | pKd [24, 27]: below the threshold | pKd [25, 27]: 3.7 | pKd [26, 27]: 3.57
Binder: CNTVTVETVV [MAS1, P04201]
